The text below walks through data of article PMC8451032.

The target of this assay is m971 scFv with short (GGGGS) linker. As to the kind of experiment: SEC. (In general: Size exclusion chromatography separates by hydrodynamic size, large species first.)

As a reminder, the stoichiometry N is a count of units in the complex or per binding partner. m971 scFv with short (GGGGS) linker: the stoichiometry N is 2.
